Data as given in patent publication US20250163140A1.

Biological target: Recombinant Human FGF-23 (R&D Systems, Cat No. 2604-FG-025/CF) (human) (UniProt Q9GZV9)
Assay: cell-based or functional assay

Recombinant Human FGF-23 (R&D Systems, Cat No. 2604-FG-025/CF) (human), sequence (Q9GZV9 25-251 limits assumed): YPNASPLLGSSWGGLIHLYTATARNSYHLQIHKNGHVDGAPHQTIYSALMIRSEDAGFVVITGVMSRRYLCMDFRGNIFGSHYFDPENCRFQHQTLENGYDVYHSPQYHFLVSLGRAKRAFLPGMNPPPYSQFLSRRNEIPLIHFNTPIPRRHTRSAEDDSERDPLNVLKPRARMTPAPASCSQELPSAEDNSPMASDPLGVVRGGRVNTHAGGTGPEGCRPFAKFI

FGF23 neutralizing activity IC50 (luciferase promoter assay) [µg/mL] | Binder
0.0124 | antibody D105N_G2_YTE (antibody) heavy: QVQLVQSGAEVKKPGASVKVSCKASGYTFTNHYMHWVRQAPGQGLEWMGIINPISGSTSNAQKFQGRVTMTRDTSTSTVYMELSSLRSEDTAVYYCARDIVDAFNFWGQGTMVTVSSASTKGPSVFPLAPCSRSTSESTAALGCLVKDYFPEPVTVSWNSGALTSGVHTFPAVLQSSGLYSLSSVVTVPSSNFGTQTYTCNVDHKPSNTKVDKTVERKCCVECPPCPAPPVAGPSVFLFPPKPKDTLYITREPEVTCVVVDVSHEDPEVQFNWYVDGVEVHNAKTKPREEQFNSTFRVVSVLTVVHQDWLNGKEYKCKVSNKGLPAPIEKTISKTKGQPREPQVYTLPPSREEMTKNQVSLTCLVKGFYPSDIAVEWESNGQPENNYKTTPPMLDSDGSFFLYSKLTVDKSRWQQGNVFSCSVMHEALHNHYTQKSLSLSPGK light: AIQLTQSPSSLSASVGDRVTITCRASQGISSALVWYQQKPGKAPKLLIYDASSLESGVPSRFSGSGSGTDFTLTISSLQPEDFATYYCQQFNDYFTFGPGTKVDIK
0.0124 | antibody D105N_G2_LS (antibody) heavy: QVQLVQSGAEVKKPGASVKVSCKASGYTFTNHYMHWVRQAPGQGLEWMGIINPISGSTSNAQKFQGRVTMTRDTSTSTVYMELSSLRSEDTAVYYCARDIVDAFNFWGQGTMVTVSSASTKGPSVFPLAPCSRSTSESTAALGCLVKDYFPEPVTVSWNSGALTSGVHTFPAVLQSSGLYSLSSVVTVPSSNFGTQTYTCNVDHKPSNTKVDKTVERKCCVECPPCPAPPVAGPSVFLFPPKPKDTLMISRTPEVTCVVVDVSHEDPEVQFNWYVDGVEVHNAKTKPREEQFNSTFRVVSVLTVVHQDWLNGKEYKCKVSNKGLPAPIEKTISKTKGQPREPQVYTLPPSREEMTKNQVSLTCLVKGFYPSDIAVEWESNGQPENNYKTTPPMLDSDGSFFLYSKLTVDKSRWQQGNVFSCSVLHEALHSHYTQKSLSLSPGK light: AIQLTQSPSSLSASVGDRVTITCRASQGISSALVWYQQKPGKAPKLLIYDASSLESGVPSRFSGSGSGTDFTLTISSLQPEDFATYYCQQFNDYFTFGPGTKVDIK
0.0117 | antibody D105N_IgG4PE_R409K_LS (antibody) heavy: QVQLVQSGAEVKKPGASVKVSCKASGYTFTNHYMHWVRQAPGQGLEWMGIINPISGSTSNAQKFQGRVTMTRDTSTSTVYMELSSLRSEDTAVYYCARDIVDAFNFWGQGTMVTVSSASTKGPSVFPLAPCSRSTSESTAALGCLVKDYFPEPVTVSWNSGALTSGVHTFPAVLQSSGLYSLSSVVTVPSSSLGTKTYTCNVDHKPSNTKVDKRVESKYGPPCPPCPAPEFEGGPSVFLFPPKPKDTLMISRTPEVTCVVVDVSQEDPEVQFNWYVDGVEVHNAKTKPREEQFNSTYRVVSVLTVLHQDWLNGKEYKCKVSNKGLPSSIEKTISKAKGQPREPQVYTLPPSQEEMTKNQVSLTCLVKGFYPSDIAVEWESNGQPENNYKTTPPVLDSDGSFFLYSKLTVDKSRWQEGNVFSCSVLHEALHSHYTQKSLSLSLGK light: AIQLTQSPSSLSASVGDRVTITCRASQGISSALVWYQQKPGKAPKLLIYDASSLESGVPSRFSGSGSGTDFTLTISSLQPEDFATYYCQQFNDYFTFGPGTKVDIK
0.005 | antibody I100A_G2_YTE (antibody) heavy: QVQLVQSGAEVKKPGASVKVSCKASGYTFTNHYMHWVRQAPGQGLEWMGIINPISGSTSNAQKFQGRVTMTRDTSTSTVYMELSSLRSEDTAVYYCARDAVDAFDFWGQGTMVTVSSASTKGPSVFPLAPCSRSTSESTAALGCLVKDYFPEPVTVSWNSGALTSGVHTFPAVLQSSGLYSLSSVVTVPSSNFGTQTYTCNVDHKPSNTKVDKTVERKCCVECPPCPAPPVAGPSVFLFPPKPKDTLYITREPEVTCVVVDVSHEDPEVQFNWYVDGVEVHNAKTKPREEQFNSTFRVVSVLTVVHQDWLNGKEYKCKVSNKGLPAPIEKTISKTKGQPREPQVYTLPPSREEMTKNQVSLTCLVKGFYPSDIAVEWESNGQPENNYKTTPPMLDSDGSFFLYSKLTVDKSRWQQGNVFSCSVMHEALHNHYTQKSLSLSPGK light: AIQLTQSPSSLSASVGDRVTITCRASQGISSALVWYQQKPGKAPKLLIYDASSLESGVPSRFSGSGSGTDFTLTISSLQPEDFATYYCQQFNDYFTFGPGTKVDIK
0.0024 | antibody I100A_G2_LS (antibody) heavy: QVQLVQSGAEVKKPGASVKVSCKASGYTFTNHYMHWVRQAPGQGLEWMGIINPISGSTSNAQKFQGRVTMTRDTSTSTVYMELSSLRSEDTAVYYCARDAVDAFDFWGQGTMVTVSSASTKGPSVFPLAPCSRSTSESTAALGCLVKDYFPEPVTVSWNSGALTSGVHTFPAVLQSSGLYSLSSVVTVPSSNFGTQTYTCNVDHKPSNTKVDKTVERKCCVECPPCPAPPVAGPSVFLFPPKPKDTLMISRTPEVTCVVVDVSHEDPEVQFNWYVDGVEVHNAKTKPREEQFNSTFRVVSVLTVVHQDWLNGKEYKCKVSNKGLPAPIEKTISKTKGQPREPQVYTLPPSREEMTKNQVSLTCLVKGFYPSDIAVEWESNGQPENNYKTTPPMLDSDGSFFLYSKLTVDKSRWQQGNVFSCSVLHEALHSHYTQKSLSLSPGK light: AIQLTQSPSSLSASVGDRVTITCRASQGISSALVWYQQKPGKAPKLLIYDASSLESGVPSRFSGSGSGTDFTLTISSLQPEDFATYYCQQFNDYFTFGPGTKVDIK
0.0066 | antibody I100A_IgG4PE_R409K_LS (antibody) heavy: QVQLVQSGAEVKKPGASVKVSCKASGYTFTNHYMHWVRQAPGQGLEWMGIINPISGSTSNAQKFQGRVTMTRDTSTSTVYMELSSLRSEDTAVYYCARDAVDAFDFWGQGTMVTVSSASTKGPSVFPLAPCSRSTSESTAALGCLVKDYFPEPVTVSWNSGALTSGVHTFPAVLQSSGLYSLSSVVTVPSSSLGTKTYTCNVDHKPSNTKVDKRVESKYGPPCPPCPAPEFEGGPSVFLFPPKPKDTLMISRTPEVTCVVVDVSQEDPEVQFNWYVDGVEVHNAKTKPREEQFNSTYRVVSVLTVLHQDWLNGKEYKCKVSNKGLPSSIEKTISKAKGQPREPQVYTLPPSQEEMTKNQVSLTCLVKGFYPSDIAVEWESNGQPENNYKTTPPVLDSDGSFFLYSKLTVDKSRWQEGNVFSCSVLHEALHSHYTQKSLSLSLGK light: AIQLTQSPSSLSASVGDRVTITCRASQGISSALVWYQQKPGKAPKLLIYDASSLESGVPSRFSGSGSGTDFTLTISSLQPEDFATYYCQQFNDYFTFGPGTKVDIK
0.0089 | antibody I100H_G2_YTE (antibody) heavy: QVQLVQSGAEVKKPGASVKVSCKASGYTFTNHYMHWVRQAPGQGLEWMGIINPISGSTSNAQKFQGRVTMTRDTSTSTVYMELSSLRSEDTAVYYCARDHVDAFDFWGQGTMVTVSSASTKGPSVFPLAPCSRSTSESTAALGCLVKDYFPEPVTVSWNSGALTSGVHTFPAVLQSSGLYSLSSVVTVPSSNFGTQTYTCNVDHKPSNTKVDKTVERKCCVECPPCPAPPVAGPSVFLFPPKPKDTLYITREPEVTCVVVDVSHEDPEVQFNWYVDGVEVHNAKTKPREEQFNSTFRVVSVLTVVHQDWLNGKEYKCKVSNKGLPAPIEKTISKTKGQPREPQVYTLPPSREEMTKNQVSLTCLVKGFYPSDIAVEWESNGQPENNYKTTPPMLDSDGSFFLYSKLTVDKSRWQQGNVFSCSVMHEALHNHYTQKSLSLSPGK light: AIQLTQSPSSLSASVGDRVTITCRASQGISSALVWYQQKPGKAPKLLIYDASSLESGVPSRFSGSGSGTDFTLTISSLQPEDFATYYCQQFNDYFTFGPGTKVDIK
0.013 | antibody I100H_G2_LS (antibody) heavy: QVQLVQSGAEVKKPGASVKVSCKASGYTFTNHYMHWVRQAPGQGLEWMGIINPISGSTSNAQKFQGRVTMTRDTSTSTVYMELSSLRSEDTAVYYCARDHVDAFDFWGQGTMVTVSSASTKGPSVFPLAPCSRSTSESTAALGCLVKDYFPEPVTVSWNSGALTSGVHTFPAVLQSSGLYSLSSVVTVPSSNFGTQTYTCNVDHKPSNTKVDKTVERKCCVECPPCPAPPVAGPSVFLFPPKPKDTLMISRTPEVTCVVVDVSHEDPEVQFNWYVDGVEVHNAKTKPREEQFNSTFRVVSVLTVVHQDWLNGKEYKCKVSNKGLPAPIEKTISKTKGQPREPQVYTLPPSREEMTKNQVSLTCLVKGFYPSDIAVEWESNGQPENNYKTTPPMLDSDGSFFLYSKLTVDKSRWQQGNVFSCSVLHEALHSHYTQKSLSLSPGK light: AIQLTQSPSSLSASVGDRVTITCRASQGISSALVWYQQKPGKAPKLLIYDASSLESGVPSRFSGSGSGTDFTLTISSLQPEDFATYYCQQFNDYFTFGPGTKVDIK
0.0131 | antibody I100H_IgG4PE_R409K_LS (antibody) heavy: QVQLVQSGAEVKKPGASVKVSCKASGYTFTNHYMHWVRQAPGQGLEWMGIINPISGSTSNAQKFQGRVTMTRDTSTSTVYMELSSLRSEDTAVYYCARDHVDAFDFWGQGTMVTVSSASTKGPSVFPLAPCSRSTSESTAALGCLVKDYFPEPVTVSWNSGALTSGVHTFPAVLQSSGLYSLSSVVTVPSSSLGTKTYTCNVDHKPSNTKVDKRVESKYGPPCPPCPAPEFEGGPSVFLFPPKPKDTLMISRTPEVTCVVVDVSQEDPEVQFNWYVDGVEVHNAKTKPREEQFNSTYRVVSVLTVLHQDWLNGKEYKCKVSNKGLPSSIEKTISKAKGQPREPQVYTLPPSQEEMTKNQVSLTCLVKGFYPSDIAVEWESNGQPENNYKTTPPVLDSDGSFFLYSKLTVDKSRWQEGNVFSCSVLHEALHSHYTQKSLSLSLGK light: AIQLTQSPSSLSASVGDRVTITCRASQGISSALVWYQQKPGKAPKLLIYDASSLESGVPSRFSGSGSGTDFTLTISSLQPEDFATYYCQQFNDYFTFGPGTKVDIK
0.0029 | antibody I100Y_G2_YTE (antibody) heavy: QVQLVQSGAEVKKPGASVKVSCKASGYTFTNHYMHWVRQAPGQGLEWMGIINPISGSTSNAQKFQGRVTMTRDTSTSTVYMELSSLRSEDTAVYYCARDYVDAFDFWGQGTMVTVSSASTKGPSVFPLAPCSRSTSESTAALGCLVKDYFPEPVTVSWNSGALTSGVHTFPAVLQSSGLYSLSSVVTVPSSNFGTQTYTCNVDHKPSNTKVDKTVERKCCVECPPCPAPPVAGPSVFLFPPKPKDTLYITREPEVTCVVVDVSHEDPEVQFNWYVDGVEVHNAKTKPREEQFNSTFRVVSVLTVVHQDWLNGKEYKCKVSNKGLPAPIEKTISKTKGQPREPQVYTLPPSREEMTKNQVSLTCLVKGFYPSDIAVEWESNGQPENNYKTTPPMLDSDGSFFLYSKLTVDKSRWQQGNVFSCSVMHEALHNHYTQKSLSLSPGK light: AIQLTQSPSSLSASVGDRVTITCRASQGISSALVWYQQKPGKAPKLLIYDASSLESGVPSRFSGSGSGTDFTLTISSLQPEDFATYYCQQFNDYFTFGPGTKVDIK
